Test results: patent publication US20250002588A1 (DIAGONAL THERAPEUTICS, published 2025)
Residue numbers refer to the chain shown, from its start.

B1: DGL267 (bispecific antibody)
chain 1: EVQLLESGGGLVQPGGSLRLSCAASGFTFSSYAMSWVRQAPGKGLEWVANINQDGSEKNYVDSMRGRFTISRDNSKNTLYLQMNSLRAEDTAVYYCAREFDYWGQGTLVTVTSSGGGGSGGGGSGGGGSQSVLAQPPSASGTPGQRVTISCSGSSSNIGSNYVYWYQQLPGTAPKLLIYGNNKRPSGVPDRFSGSKSGTSASLAISGLRSEDEADYYCAAWDDSLNGRVFGGGTKLTVLGGGGSGGGGSGGGGSGVECPPCPAPPVAGPSVFLFPPKPKDTLMISRTPEVTCVVVDVSHEDPEVQFNWYVDGVEVHNAKTKPREEQFNSTFRVVSVLTVVHQDWLNGKEYKCKVSNKGLPAPIEKTISKTKGQPREPQVYTLPPCREEMTKNQVSLWCLVKGFYPSDIAVEWESNGQPENNYKTTPPMLDSDGSFFLYSKLTVDKSRWQQGNVFSCSVMHEALHNHYTQKSLSLSPG
chain 2: EVQLLESGGGLVQPGGSLRLSCAASGFTFSDYYMTWIRQAPGKGLEWVSSISGGSTYYADSRKGRFTISRDNSENTLYLQMNSLRAEDTAVYYCARDFGVAGWFGQYGMDVWGQGTLVTVSSGGGGSGGGGSGGGGSQSVLTQPPSASGTPGQRVTISCTGSSSNIGAGYDVHWYQQLPGTAPKLLIYRSNQRPSGVPDRFSGSKSGTSASLAISGLRSEDEADYYCSSYAGNYNLVFGGGTKLTVLGGGGSGGGGSGGGGSGVECPPCPAPPVAGPSVFLFPPKPKDTLMISRTPEVTCVVVDVSHEDPEVQFNWYVDGVEVHNAKTKPREEQFNSTFRVVSVLTVVHQDWLNGKEYKCKVSNKGLPAPIEKTISKTKGQPREPQVCTLPPSREEMTKNQVSLSCAVKGFYPSDIAVEWESNGQPENNYKTTPPMLDSDGSFFLVSKLTVDKSRWQQGNVFSCSVMHEALHNHYTQKSLSLSPG
B2: DGL270 (bispecific antibody)
chain 1: B1 chain 1
chain 2: B1 chain 1 with Y380C, C385S, W397S, L399A, Y438V
B3: DGL269 (bispecific antibody)
chain 1: EVQLLESGGGLVQPGGSLRLSCAASGFTFSNAWMNWVRQAPGKGLEWVSSISSSSSYIYYADSVKGRFTISRDNSKNTLYLQMNSLRAEDTAVYYCARAVAAGGMFWGLDQWGQGTLVTVTSSGGGGSGGGGSGGGGSQSVLTQPPSASGTPGQRVTISCSGSRSNIGSNSVHWYQQLPGTAPKLLIYGNSNRPSGVPDRFSGSKSGTSASLAISGLRSEDEADYYCQSYDSSLNDHVVFGGGTKLTVLGGGGSGGGGSGGGGSGVECPPCPAPPVAGPSVFLFPPKPKDTLMISRTPEVTCVVVDVSHEDPEVQFNWYVDGVEVHNAKTKPREEQFNSTFRVVSVLTVVHQDWLNGKEYKCKVSNKGLPAPIEKTISKTKGQPREPQVYTLPPCREEMTKNQVSLWCLVKGFYPSDIAVEWESNGQPENNYKTTPPMLDSDGSFFLYSKLTVDKSRWQQGNVFSCSVMHEALHNHYTQKSLSLSPG
chain 2: B3 chain 1 with Y390C, C395S, W407S, L409A, Y448V
B4: DGL268 (bispecific antibody)
chain 1: EVQLLESGGGLVQPGGSLRLSCAASGFTFSIYAMSWVRQAPGKGLEWVSAISGSGGSTYYADSVKGRFTISRDNSKNTLYLQMNSLRAEDTAVYYCARDFDYWGQGTLVTVTSSGGGGSGGGGSGGGGSQSVLTQPPSASGTPGQRVTISCSGSSSNIGSNYVYWYQQLPGTAPKLLIYGNINRPSGVPDRFSGSKSGTSASLAISGLRSEDEADYYCAAWDDSLNGRVFGGGTKLTVLGGGGSGGGGSGGGGSGVECPPCPAPPVAGPSVFLFPPKPKDTLMISRTPEVTCVVVDVSHEDPEVQFNWYVDGVEVHNAKTKPREEQFNSTFRVVSVLTVVHQDWLNGKEYKCKVSNKGLPAPIEKTISKTKGQPREPQVYTLPPCREEMTKNQVSLWCLVKGFYPSDIAVEWESNGQPENNYKTTPPMLDSDGSFFLYSKLTVDKSRWQQGNVFSCSVMHEALHNHYTQKSLSLSPG
chain 2: B4 chain 1 with Y380C, C385S, W397S, L399A, Y438V
B5: DGL642 (bispecific antibody)
chain 1: EVQLLESGGGLVQPGGSLRLSCAASGFTFSNAWMNWVRQAPGKGLEWVSSISSSSSYIYYADSVKGRFTISRDNSKNTLYLQMNSLRAEDTAVYYCARSNGSGGSTYPLDLWGQGTLVTVTSSGGGGSGGGGSGGGGSQSVLTQPPSASGTPGQRVTISCSGSRSNIGSNSVHWYQQLPGTAPKLLIYGNSNRPSGVPDRFSGSKSGTSASLAISGLRSEDEADYYCQSYDSSLNDHVVFGGGTKLTVLDKTHTCPPCPAPEAAGAPSVFLFPPKPKDTLMISRTPEVTCVVVDVSHEDPEVKFNWYVDGVEVHNAKTKPREEQYNSTYRVVSVLTVLHQDWLNGKEYKCKVSNKALPAPIEKTISKAKGQPREPQVCTLPPSRDELTKNQVSLSCAVKGFYPSDIAVEWESNGQPENNYKTTPPVLDSDGSFFLVSKLTVDKSRWQQGNVFSCSVMHEALHNHYTQKSLSLSPGWSHPQFEK
chain 2: not shown
B6: DGL646 (bispecific antibody)
chain 1: B5 chain 1 with S99A, N100V, S102A, G103S, G104T, S105V, T106Y, Y107F, P108G, L111Q
chain 2: not shown
B7: DGL643 (bispecific antibody)
chain 1: B5 chain 1 with T106D
chain 2: not shown
B8: DGL650 (bispecific antibody)
chain 1: EVQLLESGGGLVQPGGSLRLSCAASGFTFSLAWMNWVRQAPGKGLEWVSSISSSTSYIYYADSVKGRFTISRDNSKNTLYLQMNSLRAEDTAVYYCARAVAAGGFFWGLDQWGQGTLVTVTSSGGGGSGGGGSGGGGSQSVLTQPPSASGTPGQRVTISCSGSRSNIGSNSVHWYQQLPGTAPKLLIYGNSNRPSGVPDRFSGSKSGTSASLAISGLRSEDEADYYCQSYDSSLNDHVVFGGGTKLTVLDKTHTCPPCPAPEAAGAPSVFLFPPKPKDTLMISRTPEVTCVVVDVSHEDPEVKFNWYVDGVEVHNAKTKPREEQYNSTYRVVSVLTVLHQDWLNGKEYKCKVSNKALPAPIEKTISKAKGQPREPQVCTLPPSRDELTKNQVSLSCAVKGFYPSDIAVEWESNGQPENNYKTTPPVLDSDGSFFLVSKLTVDKSRWQQGNVFSCSVMHEALHNHYTQKSLSLSPGWSHPQFEK
chain 2: not shown

The binders below were run against T1, ALK-1/BMPR-2 receptor pair of the PathHunter U2Os dimerization cells (DiscoverX 93-0962C3) (UniProt P37023 22-503; Q13873 27-1038) (assay: cell-based or functional assay).
T1 sequence (P37023 22-503, chain 1 of 2): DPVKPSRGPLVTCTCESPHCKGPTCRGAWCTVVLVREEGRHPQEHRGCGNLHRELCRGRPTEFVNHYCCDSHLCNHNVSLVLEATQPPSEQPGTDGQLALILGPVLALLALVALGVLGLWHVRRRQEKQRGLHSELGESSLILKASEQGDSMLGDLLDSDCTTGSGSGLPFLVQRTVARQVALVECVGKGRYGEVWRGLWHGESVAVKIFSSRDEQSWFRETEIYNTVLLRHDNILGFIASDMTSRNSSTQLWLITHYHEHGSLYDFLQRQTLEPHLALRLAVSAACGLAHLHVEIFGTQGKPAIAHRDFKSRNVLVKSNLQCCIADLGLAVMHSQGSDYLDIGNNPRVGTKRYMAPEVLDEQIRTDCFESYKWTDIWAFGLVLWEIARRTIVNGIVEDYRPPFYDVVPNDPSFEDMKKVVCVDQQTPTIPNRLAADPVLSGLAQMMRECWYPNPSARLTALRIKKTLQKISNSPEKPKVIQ
T1 sequence (Q13873 27-1038, chain 2 of 2): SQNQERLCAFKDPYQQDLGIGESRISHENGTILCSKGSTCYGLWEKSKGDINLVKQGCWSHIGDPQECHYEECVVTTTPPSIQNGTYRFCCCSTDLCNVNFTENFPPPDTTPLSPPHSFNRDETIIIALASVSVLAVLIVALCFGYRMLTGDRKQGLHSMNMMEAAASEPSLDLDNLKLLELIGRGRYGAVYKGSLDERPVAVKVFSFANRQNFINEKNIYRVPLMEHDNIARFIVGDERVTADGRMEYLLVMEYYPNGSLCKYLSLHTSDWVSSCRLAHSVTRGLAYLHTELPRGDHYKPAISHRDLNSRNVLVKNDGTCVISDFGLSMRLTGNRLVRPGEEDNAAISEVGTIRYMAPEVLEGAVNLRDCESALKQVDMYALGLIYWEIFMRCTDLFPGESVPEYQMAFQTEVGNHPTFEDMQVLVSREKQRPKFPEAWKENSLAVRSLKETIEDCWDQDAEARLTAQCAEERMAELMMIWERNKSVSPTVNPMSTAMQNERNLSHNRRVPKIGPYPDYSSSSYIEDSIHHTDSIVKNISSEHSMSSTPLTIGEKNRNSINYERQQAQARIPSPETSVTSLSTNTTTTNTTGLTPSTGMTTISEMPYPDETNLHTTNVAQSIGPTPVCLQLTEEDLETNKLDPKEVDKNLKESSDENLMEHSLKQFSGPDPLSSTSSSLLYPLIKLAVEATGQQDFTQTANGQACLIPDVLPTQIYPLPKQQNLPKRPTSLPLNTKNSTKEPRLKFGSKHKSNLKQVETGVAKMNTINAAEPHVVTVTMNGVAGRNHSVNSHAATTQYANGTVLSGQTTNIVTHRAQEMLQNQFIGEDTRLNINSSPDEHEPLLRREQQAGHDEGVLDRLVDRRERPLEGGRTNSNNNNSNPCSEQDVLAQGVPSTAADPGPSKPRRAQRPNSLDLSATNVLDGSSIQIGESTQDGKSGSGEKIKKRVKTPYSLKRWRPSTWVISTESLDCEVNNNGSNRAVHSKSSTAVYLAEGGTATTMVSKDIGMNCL

First: B1
Second: B2
The “% Emax BMP9” value of the first is higher: 46% for the first, 0% for the second.

First: B3
Second: B4
The “% Emax BMP9” value of the first is lower: 0% for the first, 1% for the second.

Compared with B1, B4 is 9-fold lower in “EC50” value: 0.9 nM for the first, 0.1 nM for the second.

Going from B1 to B2, the “Emax (RLU)” value falls from 1.23e+06 RLU to 9200 RLU.

Compared with B3, B4 is higher in “Emax (RLU)” value: -8300 RLU for the first, 35200 RLU for the second.

Target: T1, ALK-1/BMPR-2 receptor pair of the …
Assay: cell-based or functional assay
Remark: another data set of the same source

Compared with B5, B6 is higher in “% Emax BMP9” value: 14% for the first, 18% for the second.

Compared with B7, B8 is higher in “% Emax BMP9” value: 13% for the first, 43% for the second.

First: B5
Second: B6
The “Emax (RLU)” value of the first is lower: 255000 RLU for the first, 333000 RLU for the second.

Going from B7 to B8, the “Emax (RLU)” value rises from 246000 RLU to 801000 RLU.

What follows are binders tested against human ALK1 protein (Sino Biological, #10066-H08H) (human, UniProt P37023 22-118) (assay: ELISA, coated human ALK1).
Experimental: These binders were then tested using an ELISA assay. High binding plates (Corning, 9018) were coated with either 2 μg/ml of human BMPRII protein (Sino Biological, #10551-H08H) or 2 μg/ml of human ALK1 protein (Sino Biological, #10066-H08H) overnight at 4C. The plates were then washed three times with wash buffer (R&D Systems, WA126). […] The plates were then washed three times with wash buffer and DGL antibodies or controls, which were diluted with PBS and 0.1% BSA. The antibodies were incubated for one hour at room temperature and then the plates were washed three times with wash buffer. The plates were then incubated with mouse anti-human IgG Fc secondary—HRP (diluted with PBS/0.1% BSA); 100 ul per well at 2 μg/ml and incubated at room temperature for one hour. The plate was washed three times in wash buffer and then 100 ul TMB (R&D Systems, DY9998B, substrate reagent pack). After the wells turn blue, 50 ul of stop solution (R&D Systems, DY994) was added to each well and the absorbance of the plate was read at 450 nm. results can be found in Table 8.

Sequence of human ALK1 protein (Sino Biological, #10066-H08H) (P37023 22-118 limits assumed): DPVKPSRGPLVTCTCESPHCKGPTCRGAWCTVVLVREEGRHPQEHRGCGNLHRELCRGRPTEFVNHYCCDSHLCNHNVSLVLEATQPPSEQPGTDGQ

First: B5
Second: B6
The “Abs450 1 nM” value of the first is higher: 0.08 for the first, 0.06 for the second.

First: B7
Second: B8
The “Abs450 1 nM” value of the first is lower: 0.04 for the first, 0.08 for the second.

Compared with B5, B6 is higher in “Abs450 10 nM” value: 0.09 for the first, 0.15 for the second.

First: B7
Second: B8
The “Abs450 10 nM” value of the first is lower: 0.13 for the first, 0.15 for the second.

Going from B5 to B6, the “Abs450 100 nM” value rises from 0.5 to 0.8.

Going from B7 to B8, the “Abs450 100 nM” value falls from 0.71 to 0.65.
